# Reference: US20260242478A1 (published 2026)
# Where no end group is shown, it is not given here.
# B1: Phage-2849 (peptide)
# peptide: VFPICKPSWMCVGM
# modifications: cysteine pairing not given here; also: fused to pIII of bacteriophage, linker and pIII sequence not given here
# notes: Clonal phage of the Peptide-180 optimization library, tested as crude phage supernatant; not shown: fused to pIII of the bacteriophage
# B2: Phage-2846 (peptide)
# peptide: WEVRCVPEWMCVGF
# modifications: cysteine pairing not given here; also: fused to pIII of bacteriophage, linker and pIII sequence not given here
# notes: as for B1
# B3: Phage-2848 (peptide)
# peptide: VMTVCKPAWMCTGF
# modifications: cysteine pairing not given here; also: fused to pIII of bacteriophage, linker and pIII sequence not given here
# notes: as for B1
# B4: Phage-2847 (peptide)
# peptide: WMPRCVPEWMCAGF
# modifications: cysteine pairing not given here; also: fused to pIII of bacteriophage, linker and pIII sequence not given here
# notes: as for B1
# Columns and labels:
# [1] = target: T1, 006 PSMA Fab; test: clonal phage ELISA on captured anti-PSMA Fab; competitor PSMA antigen
# T1 construct: also called Anti-PSMA Fab
# Procedure: (§1) Clonal phage were harvested as crude supernatants and screened via standard ELISAs. […] Prior to the addition of clonal phage. wells were incubated with blocking buffer and PSMA antigen or blocking buffer alone. Without washing or aspirating, clonal phage supernatants were then added to the wells and incubated for a short time. Wells were then washed followed by detection of bound phage using a horse radish conjugated anti-M13 antibody.
# [2] = target: T1, 006 PSMA Fab; test: clonal phage ELISA on biotinylated anti-PSMA Fab captured on neutravidin, anti-M13 HRP detection
# Procedure: as §1
# [3] = target: T2, PSMA Fab; test: phage ELISA; biotinylated PSMA Fab on neutravidin plate, blocking buffer alone, anti-M13 HRP detection
# T2 construct: also called Anti-PSMA Fab; 006 PSMA Fab
# Procedure: as §1
# [4] = target: T2, PSMA Fab; test: phage ELISA; biotinylated PSMA Fab on neutravidin plate, pre-incubated with PSMA antigen as competitor, anti-M13 HRP detection
# Procedure: as §1
# [5] = target: T3, 006 PSMA Fab; test: clonal phage ELISA on captured PSMA Fab pre-incubated with PSMA antigen as competitor, anti-M13 HRP detection;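 further: crude clonal phage supernatants tested by ELISA, wells first treated with blocking buffer plus PSMA antigen, bound phage read out via HRP-linked anti-M13 antibody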
# T3 construct: also called Anti-PSMA Fab
# Procedure: as §1
# [6] = target: T3, 006 PSMA Fab; test: clonal phage ELISA on biotinylated PSMA Fab captured on neutravidin plates, anti-M13 HRP detection;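 further: crude clonal phage supernatants tested, before phage were added, wells were pretreated with PSMA antigen in blocking buffer or with blocking buffer only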
# Procedure: as §1
# [7] = target: T4, PSMA Fab; test: phage ELISA; biotinylated PSMA Fab on neutravidin plate, blocking buffer alone; bound phage detected with anti-M13-HRP
# T4 construct: Used biotinylated and captured on neutravidin plates in the phage ELISA; also called Anti-PSMA Fab; 006 PSMA Fab
# Procedure: as §1
# [8] = target: T4, PSMA Fab; test: phage ELISA; biotinylated PSMA Fab on neutravidin plate, pre-incubated with PSMA antigen as competitor; anti-M13-HRP
# Procedure: as §1
Binder,phage binding ELISA signal with PSMA antigen present [1],phage binding ELISA signal [2],"Phage binding ELISA signal, Anti-PSMA Fab [3]","Phage binding ELISA signal, Anti-PSMA Fab in presence of PSMA [4]",further results
YPPLCKPEWMCVGL [Phage-3525],0.0714,1.67,–,–,–
PVRVCIPQWMCIGF [Phage-3440],–,–,1.75,0.13,–
ALLSCVPPWMCLGL [Phage-3522],0.0728,1.68,–,–,–
VSPSCVPPWMCVGF [Phage-3531],0.0791,1.66,–,–,–
VLHMCVPLWMCHGL [Phage-3435],–,–,1.76,0.133,–
PSISCTPQWMCFGF [Phage-3521],0.0639,1.68,–,–,–
SAIRCEPLWMCSGL [Phage-3519],0.0578,1.68,–,–,–
VTPRCIPEWMCAGF (cysteine pairing not given here; also: fused to pIII of bacteriophage) [Phage-3442],–,–,1.75,0.106,–
VVPWCSPAWMCSGF [Phage-3529],0.0752,1.67,–,–,–
LIALCKPPWMCEWF [Phage-3526],0.213,1.67,–,–,–
SPIMCTPDWMCLGF [Phage-3439],–,–,1.75,0.0708,–
YGLRCEPAWMCQGF [Phage-3443],–,–,1.75,0.0879,–
PAQMCIPQWMCNWL [Phage-3438],–,–,1.75,0.0635,–
PGPSCVPSWMCVGF [Phage-3437],–,–,1.76,0.074,–
VVRHCVPTWMCTGF [Phage-3532],0.102,1.66,–,–,–
B1,–,–,–,–,"Phage binding ELISA signal, Anti-PSMA Fab with PSMA antigen [5]: 0.174; Phage binding ELISA signal, Anti-PSMA Fab [6]: 2.46"
WFRMCEPSWMCEGF [Phage-3527],0.11,1.67,–,–,–
EVQYCVPAWMCEGF [Phage-3520],0.117,1.68,–,–,–
MPIYCVPEWMCQGL [Phage-3446],–,–,1.75,0.0867,–

Binder,phage binding ELISA signal with PSMA antigen present [1],phage binding ELISA signal [2],"Phage binding ELISA signal, Anti-PSMA Fab [3]","Phage binding ELISA signal, Anti-PSMA Fab in presence of PSMA [4]",further results
TPHACVPDWMCYGF [Phage-3444],–,–,1.75,0.0843,–
EIPYCVPQWMCVAM [Phage-3434],–,–,1.76,0.0788,–
ITPMCIPAWMCEGV [Phage-3445],–,–,1.75,0.0611,–
LEKVCKPMWMCTGF [Phage-3448],–,–,1.75,0.0949,–
ELLHCKPMWMCIGL [Phage-3524],0.0864,1.67,–,–,–
VKPVCKPVWMCVGF [Phage-3436],–,–,1.76,0.122,–
FTARCEPSWMCVGF (also called Peptide-180 library clone) [Phage-3730],–,–,–,–,"Phage binding ELISA signal, Anti-PSMA Fab [7]: 1.41; Phage binding ELISA signal, Anti-PSMA Fab in presence of PSMA antigen [8]: 0.0626"
GYVMCEPRWMCEGL [Phage-3528],0.0803,1.67,–,–,–
YNMICQPQWMCSGF [Phage-3447],–,–,1.75,0.0661,–
DMARCIPAWMCTGF [Phage-3523],0.106,1.68,–,–,–
"DYSVCRPAWMCQGF (cysteine pairing not given here; also: fused to phage pIII, also called Peptide-180 library clone) [Phage-3729]",–,–,–,–,"Phage binding ELISA signal, Anti-PSMA Fab [7]: 1.41; Phage binding ELISA signal, Anti-PSMA Fab in presence of PSMA antigen [8]: 0.0699"
B2,–,–,–,–,"Phage binding ELISA signal, Anti-PSMA Fab with PSMA antigen [5]: 0.119; Phage binding ELISA signal, Anti-PSMA Fab [6]: 2.48"
ETMICKPEWMCTGF [Phage-3441],–,–,1.75,0.0818,–
B3,–,–,–,–,"Phage binding ELISA signal, Anti-PSMA Fab with PSMA antigen [5]: 0.205; Phage binding ELISA signal, Anti-PSMA Fab [6]: 2.47"
GPKICVPMWMCDGF [Phage-3518],0.116,1.68,–,–,–
B4,–,–,–,–,"Phage binding ELISA signal, Anti-PSMA Fab with PSMA antigen [5]: 0.334; Phage binding ELISA signal, Anti-PSMA Fab [6]: 2.48"
EERICKPQWMCSAF [Phage-3530],0.0804,1.66,–,–,–
LYKECVPQWMCSGF (also called Peptide-180 library clone) [Phage-3731],–,–,–,–,"Phage binding ELISA signal, Anti-PSMA Fab [7]: 1.4; Phage binding ELISA signal, Anti-PSMA Fab in presence of PSMA antigen [8]: 0.0798"
